Data from PMC10656227.

Key:
[1] = biological target: collagen IV NC1 domains of the NC1 hexamer from African clawed frog kidney (African clawed frog (Xenopus laevis)); assay: SDS-PAGE (SDS resistance of the native hexamer); straight collagenase digest of tissue or animals; SDS-PAGE with 150 mM NaCl; sample at room temperature; Western blot with JK2
[2] = biological target: collagen IV NC1 domains of the NC1 hexamer from California blackworms (California blackworm (Lumbriculus variegatus)); assay: as above
[3] = biological target: collagen IV NC1 domains of the NC1 hexamer from California blackworms (California blackworm (Lumbriculus variegatus)); assay: SDS-PAGE (SDS resistance of the native hexamer); straight collagenase digest of tissue or animals; regular SDS-PAGE without Cl^− supplement; sample at room temperature; Western blot with JK2
[4] = biological target: collagen IV NC1 domains of the NC1 hexamer from axolotl kidney (axolotl (Ambystoma mexicanum)); assay: SDS-PAGE (SDS resistance of the native hexamer); straight collagenase digest of tissue or animals; SDS-PAGE with 150 mM NaCl; sample at room temperature; Western blot with JK2
[5] = biological target: collagen IV NC1 domains of the NC1 hexamer from banded killifish organs (banded killifish (Fundulus heteroclitus)); assay: as above
[6] = biological target: collagen IV NC1 domains of the NC1 hexamer from banded killifish organs (banded killifish (Fundulus heteroclitus)); assay: SDS-PAGE (SDS resistance of the native hexamer); straight collagenase digest of tissue or animals; regular SDS-PAGE without Cl^− supplement; sample at room temperature; Western blot with JK2
[7] = biological target: collagen IV NC1 domains of the NC1 hexamer from bovine kidney (cow (Bos taurus)); assay: SDS-PAGE (SDS resistance of the native hexamer); purified NC1 hexamer; Tris-glycine SDS-PAGE with 150 mM NaCl in running buffer and sample buffer; sample at room temperature, not boiled; Coomassie, TCE or Western blot
[8] = biological target: collagen IV NC1 domains of the NC1 hexamer from caiman liver (caiman (Caiman crocodilus)); assay: SDS-PAGE (SDS resistance of the native hexamer); straight collagenase digest of tissue or animals; SDS-PAGE with 150 mM NaCl; sample at room temperature; Western blot with JK2
[9] = biological target: collagen IV NC1 domains of the NC1 hexamer from dogfish lens capsule, kidney and intestine (dogfish (Squalus acanthias)); assay: SDS-PAGE (SDS resistance of the native hexamer); purified NC1 hexamer; regular SDS-PAGE without Cl^− supplement; sample at room temperature, not boiled; Coomassie, TCE or Western blot
[10] = biological target: collagen IV NC1 domains of the NC1 hexamer from dogfish lens capsule, kidney and intestine (dogfish (Squalus acanthias)); assay: SDS-PAGE (SDS resistance of the native hexamer); purified NC1 hexamer; Tris-glycine SDS-PAGE with 150 mM NaCl in running buffer and sample buffer; sample at room temperature, not boiled; Coomassie, TCE or Western blot
[11] = biological target: collagen IV NC1 domains of the NC1 hexamer from green iguana heart and kidney (green iguana (Iguana iguana)); assay: SDS-PAGE (SDS resistance of the native hexamer); straight collagenase digest of tissue or animals; SDS-PAGE with 150 mM NaCl; sample at room temperature; Western blot with JK2
[12] = biological target: collagen IV NC1 domains of the NC1 hexamer from green iguana heart and kidney (green iguana (Iguana iguana)); assay: SDS-PAGE (SDS resistance of the native hexamer); straight collagenase digest of tissue or animals; regular SDS-PAGE without Cl^− supplement; sample at room temperature; Western blot with JK2
[13] = biological target: collagen IV NC1 domains of the NC1 hexamer from human kidney (human (Homo sapiens)); assay: SDS-PAGE (SDS resistance of the native hexamer); purified NC1 hexamer; Tris-glycine SDS-PAGE with 150 mM NaCl in running buffer and sample buffer; sample at room temperature, not boiled; Coomassie, TCE or Western blot
[14] = biological target: collagen IV NC1 domains of the NC1 hexamer from leeches (leech (Hirudo medicinalis)); assay: SDS-PAGE (SDS resistance of the native hexamer); straight collagenase digest of tissue or animals; SDS-PAGE with 150 mM NaCl; sample at room temperature; Western blot with JK2
[15] = biological target: collagen IV NC1 domains of the NC1 hexamer from leeches (leech (Hirudo medicinalis)); assay: SDS-PAGE (SDS resistance of the native hexamer); straight collagenase digest of tissue or animals; regular SDS-PAGE without Cl^− supplement; sample at room temperature; Western blot with JK2
[16] = biological target: collagen IV NC1 domains of the NC1 hexamer from market squid lens capsules (market squid (Doryteuthis opalescens)); assay: SDS-PAGE (SDS resistance of the native hexamer); partially purified NC1 hexamer (SEC hexamer fraction); SDS-PAGE with 150 mM NaCl; sample at room temperature; Western blot with JK2 or TCE in-gel visualization
[17] = biological target: collagen IV NC1 domains of the NC1 hexamer from mussel (mussel (Mytilus edulis)); assay: SDS-PAGE (SDS resistance of the native hexamer); straight collagenase digest of tissue or animals; SDS-PAGE with 150 mM NaCl; sample at room temperature; Western blot with JK2
[18] = biological target: collagen IV NC1 domains of the NC1 hexamer from mussel (mussel (Mytilus edulis)); assay: SDS-PAGE (SDS resistance of the native hexamer); straight collagenase digest of tissue or animals; regular SDS-PAGE without Cl^− supplement; sample at room temperature; Western blot with JK2
[19] = biological target: collagen IV NC1 domains of the NC1 hexamer from placenta basement membrane (bovine); assay: SDS-PAGE (SDS resistance of the native hexamer); purified NC1 hexamer; Tris-glycine SDS-PAGE with 150 mM NaCl in running buffer and sample buffer; sample at room temperature, not boiled; Coomassie, TCE or Western blot
[20] = biological target: collagen IV NC1 domains of the NC1 hexamer from quick gloss snail (quick gloss snail (Zonitoides arboreus)); assay: SDS-PAGE (SDS resistance of the native hexamer); partially purified NC1 hexamer (SEC hexamer fraction); SDS-PAGE with 150 mM NaCl; sample at room temperature; Western blot with JK2 or TCE in-gel visualization
[21] = biological target: collagen IV NC1 domains of the NC1 hexamer from quick gloss snail (quick gloss snail (Zonitoides arboreus)); assay: SDS-PAGE (SDS resistance of the native hexamer); partially purified NC1 hexamer (SEC hexamer fraction); regular SDS-PAGE without Cl^− supplement; sample at room temperature; Western blot with JK2 or TCE in-gel visualization
[22] = biological target: collagen IV NC1 domains of the NC1 hexamer from rooster liver, kidney and chorioallantoic membrane (rooster (Gallus gallus domesticus)); assay: SDS-PAGE (SDS resistance of the native hexamer); purified NC1 hexamer; Tris-glycine SDS-PAGE with 150 mM NaCl in running buffer and sample buffer; sample at room temperature, not boiled; Coomassie, TCE or Western blot
[23] = biological target: collagen IV NC1 domains of the NC1 hexamer from sea clam (sea clam (Spisula solidissima)); assay: SDS-PAGE (SDS resistance of the native hexamer); straight collagenase digest of tissue or animals; SDS-PAGE with 150 mM NaCl; sample at room temperature; Western blot with JK2
[24] = biological target: collagen IV NC1 domains of the NC1 hexamer from sea clam (sea clam (Spisula solidissima)); assay: SDS-PAGE (SDS resistance of the native hexamer); straight collagenase digest of tissue or animals; regular SDS-PAGE without Cl^− supplement; sample at room temperature; Western blot with JK2
[25] = biological target: collagen IV NC1 domains of the NC1 hexamer from sea squirt (sea squirt (Ciona intestinalis)); assay: SDS-PAGE (SDS resistance of the native hexamer); collagenase digest, soluble fraction; Bis-Tris gel, Mops running buffer with 150 mM NaCl, sample buffer with 400 mM NaCl; sample at room temperature; Western blot with JK2
[26] = biological target: collagen IV NC1 domains of the NC1 hexamer from snapping turtle muscle (snapping turtle (Chelydra serpentina)); assay: SDS-PAGE (SDS resistance of the native hexamer); straight collagenase digest of tissue or animals; SDS-PAGE with 150 mM NaCl; sample at room temperature; Western blot with JK2
[27] = biological target: collagen IV NC1 domains of the NC1 hexamer from starfish gonads (starfish (Asterias rubens)); assay: as above
[28] = biological target: collagen IV NC1 domains of the NC1 hexamer from zebrafish material (zebrafish (Danio rerio)); assay: SDS-PAGE (SDS resistance of the native hexamer); partially purified NC1 hexamer (SEC hexamer fraction); SDS-PAGE with 150 mM NaCl; sample at room temperature; Western blot with JK2 or TCE in-gel visualization
[29] = biological target: collagen IV NC1 domains of the NC1 hexamer from zebrafish material (zebrafish (Danio rerio)); assay: SDS-PAGE (SDS resistance of the native hexamer); partially purified NC1 hexamer (SEC hexamer fraction); regular SDS-PAGE without Cl^− supplement; sample at room temperature; Western blot with JK2 or TCE in-gel visualization
[30] = biological target: collagen IV NC1 domains of the α121 NC1 hexamer from lens capsule basement membrane (bovine); assay: SDS-PAGE (SDS resistance of the native hexamer); purified NC1 hexamer; Tris-glycine SDS-PAGE with 150 mM NaCl in running buffer and sample buffer; sample at room temperature, not boiled; Coomassie, TCE or Western blot

With “collagen IV NC1 domains of the NC1 hexamer from African clawed frog kidney (domain or fragment)” the stoichiometry N [1] was 6.
Work on “collagen IV NC1 domains of the NC1 hexamer from California blackworms (domain or fragment)” yielded a stoichiometry N [2] of 6 and a stoichiometry N [3] of 6.
In the case of “collagen IV NC1 domains of the NC1 hexamer from axolotl kidney (domain or fragment)”, the stoichiometry N [4] is reported as 6.
In the case of “collagen IV NC1 domains of the NC1 hexamer from banded killifish organs (domain or fragment)”, the stoichiometry N [5] is reported as 6 and the stoichiometry N [6] is reported as 6.
For “collagen IV NC1 domains of the NC1 hexamer from bovine kidney (domain or fragment)”, the stoichiometry N [7] was 6.
For “collagen IV NC1 domains of the NC1 hexamer from caiman liver (domain or fragment)”, the stoichiometry N [8] was 6.
Substance “collagen IV NC1 domains of the NC1 hexamer from dogfish lens capsule, kidney and intestine (domain or fragment)” has a stoichiometry N [9] of 6 and a stoichiometry N [10] of 6.
In the case of “collagen IV NC1 domains of the NC1 hexamer from green iguana heart and kidney (domain or fragment)”, the stoichiometry N [11] is reported as 6 and the stoichiometry N [12] is reported as 6.
“collagen IV NC1 domains of the NC1 hexamer from human kidney (domain or fragment)” was tested, and the stoichiometry N [13] was 6.
In the case of “collagen IV NC1 domains of the NC1 hexamer from leeches (domain or fragment)”, the stoichiometry N [14] is reported as 6 and the stoichiometry N [15] is reported as 6.
Work on “collagen IV NC1 domains of the NC1 hexamer from market squid lens capsules (domain or fragment)” yielded a stoichiometry N [16] of 6.
“collagen IV NC1 domains of the NC1 hexamer from mussel (domain or fragment)” showed a stoichiometry N [17] of 6 and a stoichiometry N [18] of 6.
“collagen IV NC1 domains of the NC1 hexamer from placenta basement membrane (domain or fragment)” showed a stoichiometry N [19] of 6.
“collagen IV NC1 domains of the NC1 hexamer from quick gloss snail (domain or fragment)” was tested, and the stoichiometry N [20] was 6 and the stoichiometry N [21] was 6.
“collagen IV NC1 domains of the NC1 hexamer from rooster liver, kidney and chorioallantoic membrane (domain or fragment)” gave a stoichiometry N [22] of 6.
With “collagen IV NC1 domains of the NC1 hexamer from sea clam (domain or fragment)” the stoichiometry N [23] was 6 and the stoichiometry N [24] was 6.
In the case of “collagen IV NC1 domains of the NC1 hexamer from sea squirt (domain or fragment)”, the stoichiometry N [25] is reported as 6.
In the case of “collagen IV NC1 domains of the NC1 hexamer from snapping turtle muscle (domain or fragment)”, the stoichiometry N [26] is reported as 6.
With “collagen IV NC1 domains of the NC1 hexamer from starfish gonads (domain or fragment)” the stoichiometry N [27] was 6.
Substance “collagen IV NC1 domains of the NC1 hexamer from zebrafish material (domain or fragment)” has a stoichiometry N [28] of 6 and a stoichiometry N [29] of 6.
In the case of “collagen IV NC1 domains of the α121 NC1 hexamer from lens capsule basement membrane (domain or fragment)”, the stoichiometry N [30] is reported as 6.
